Measurements from PMC10821904 (2024).

How the values were obtained:
[1] = biological target: Full-length LayV-G (Langya henipavirus attachment glycoprotein G) (Langya henipavirus (LayV)); test: cryo-EM structure
[2] = biological target: LayV-G extracellular domain (Langya henipavirus attachment glycoprotein G, residues 63-624) (Langya henipavirus (LayV)); test: SEC + other: non-reducing and reducing SDS-PAGE
[3] = biological target: T1, human ephrinB2 extracellular domain (amino acids 1-227) (human, UniProt P52799 28-227); test: BLI
T1 chain: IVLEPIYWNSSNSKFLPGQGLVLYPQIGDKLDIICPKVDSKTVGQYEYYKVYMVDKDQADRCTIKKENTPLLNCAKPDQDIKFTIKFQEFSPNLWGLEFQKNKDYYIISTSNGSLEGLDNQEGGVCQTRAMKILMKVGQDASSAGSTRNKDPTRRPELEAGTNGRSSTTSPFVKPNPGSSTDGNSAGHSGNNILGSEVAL

[4] = biological target: T2, human ephrinB3 extracellular domain (amino acids 1-224) (human, UniProt Q15768 28-224); test: BLI
T2 chain: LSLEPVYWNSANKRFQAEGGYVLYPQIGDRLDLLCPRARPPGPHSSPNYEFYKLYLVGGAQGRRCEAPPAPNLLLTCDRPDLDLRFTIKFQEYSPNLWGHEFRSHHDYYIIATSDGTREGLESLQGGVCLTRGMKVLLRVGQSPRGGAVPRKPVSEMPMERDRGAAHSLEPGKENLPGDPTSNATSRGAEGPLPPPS

Work on “Full-length LayV-G (Langya henipavirus attachment glycoprotein G) (natural protein)” yielded a stoichiometry N [1] of 4.

For “LayV-G extracellular domain (Langya henipavirus attachment glycoprotein G, residues 63-624) (domain or fragment)”, the stoichiometry N [2] was 4.

B1: NiV-G ectodomain (Nipah virus attachment glycoprotein G) (domain or fragment)
chain: QNYTRSTDNQAVIKDALQGIQQQIKGLADKIGTEIGPKVSLIDTSSTITIPANIGLLGSKISQSTASINENVNEKCKFTLPPLKIHECNISCPNPLPFREYRPQTEGVSNLVGLPNNICLQKTSNQILKPKLISYTLPVVGQSGTCITDPLLAMDEGYFAYSHLERIGSCSRGVSKQRIIGVGEVLDRGDEVPSLFMTNVWTPPNPNTVYHCSAVYNNEFYYVLCAVSTVGDPILNSTYWSGSLMMTRLAVKPKSNGGGYNQHQLALRSIEKGRYDKVMPYGPSGIKQGDTLYFPAVGFLVRTEFKYNDSNCPITKCQYSKPENCRLSMGIRPNSHYILRSGLLKYNLSDGENPKVVFIEISDQRLSIGSPSKIYDSLGQPVFYQASFSWDTMIKFGDVLTVNPLVVNWRNNTVISRPGQSQCPRFNTCPEICWEGVYNDAFLIDRINWISAGVFLDSNQTAENPVFTVFKDNEILYRAQLASEDTNAQKTITNCFLLKNKIWCISLVEIYDTGDNVIRPKLFAVKIPEQCT
Work on B1 yielded a Kd [3] of 0.19 nM and a Kd [4] of 9.3 nM.
